The target in the test is cynomolgus monkey FcRn (cynomolgus monkey) (UniProt Q8SPV9). The test is described as follows: SPR; Biacore T200, pH 6.0; antibody and FcRn; who was immobilised is not told (details in Supplementary Information).
UniProt Q8SPV9, sequence (Q8SPV9 24-365): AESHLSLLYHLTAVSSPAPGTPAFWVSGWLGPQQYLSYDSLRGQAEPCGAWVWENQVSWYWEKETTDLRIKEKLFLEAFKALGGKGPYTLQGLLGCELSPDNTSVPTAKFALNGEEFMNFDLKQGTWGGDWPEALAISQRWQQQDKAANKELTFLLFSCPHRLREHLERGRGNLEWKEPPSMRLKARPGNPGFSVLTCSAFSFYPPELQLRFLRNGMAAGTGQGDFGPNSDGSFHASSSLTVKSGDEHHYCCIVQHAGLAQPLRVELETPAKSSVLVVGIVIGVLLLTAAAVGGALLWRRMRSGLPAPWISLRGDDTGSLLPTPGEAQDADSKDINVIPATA

On to trastuzumab (antibody), for which the Kd came to 1980 nM.

(Values after publication PMC5430875.)
